Biological target: the molecule itself
Assay: phase separation

B1: FUS low complexity N-terminal domain (residues 1-163) (domain or fragment, human, UniProt P35637 1-163, looked up)
chain: MASNDYTQQATQSYGAYPTQPGQGYSQQSSQPYGQQSYSGYSQSTDTSGYGQSSYSSYGQSQNTGYGTQSTPQGYGSTGGYGSSQSSQSSYGQQSSYPGYGQQPAPSSTSGSYGSSSQSSSYGQPQSGSYSQQPSYGGQQQSYGQQQSYNPPQGYGQQNQYNS
binding result: binds

From paper PMC4609301 (Molecular cell, 2015)
